{"source": "patent US9199028B2", "about": "“Use of entrained neutrophils to treat metastatic and micrometastatic disease in at risk patients” (MEMORIAL SLOAN-KETTERING CANCER CENTER, priority 2010, dated 2015)", "key": {"neutrophils": {"test_system": "neutrophils", "experiment": "In vivo rhG-CSF administration (neutrophil mobilization and lung sequestration)", "design": "species or system mouse", "conditions": "mice", "experimental": "Mice were orthotopically injected with 5×10^6 luciferase labelled 4T1 cells. 24 hours later Apocynin (2.4 g/liter) was administered in sugar sweetened drinking water. Control animals were treated with sugar sweetened water. Drinking water for both Apocynin treated and control mice were replaced every two days. Time-Lapse Microscopy 20,000 4T1 cells were labelled with CellTracker-Red (molecular Probes) according to the manufacturer instructions and plated on a chamber slide. 4 hours later, 400,000 neutrophils, isolated from 4T1 tumour-bearing Balb/c Ube-GFP mice, were added to the culture. Live imaging of Caspase 3 activation was done by labelling the tumour cells with the Caspase 3 substrate NucView 488 (Biotium) prior to the addition of GFP negative TENs. Images were taken every 10 minutes using the MetaMorph imaging system. Neutrophil Transfer Female nude mice were injected with 5×10^4 luciferase labelled 4T1 cells to the tail vein. 4 hours later, the mice were injected with 5×10^6 TENs or G-CSF mobilized neutrophils into the tail vein. Control mice were injected with vehicle. Formation of lung metastases was monitored using the IVIS-200 optical in vivo imaging system. Chemokine Administration rhG-CSF (Neupogen, Amgen) was administered daily (250 microg/kg/day) s.c. for 4 consecutive days. In vitro neutrophil stimulation—neutrophils were isolated from naïve mice and co-cultured with tumour cells in the presence of mCCL2, mCCL5 (both from R&D) or rhG-CSF (all at 20 ng/ml) or with TGF-Beta (R&D) (up to 200 pMolar). Human neutrophils purified from healthy volunteers were stimulated in vitro with hCCL2, hCCL5, hCCL3, hCCL4, hCXCL1, hCXCL12 and hCXCL16 (all from R&D at 100 ng/ml) or with rhG-CSF (20 ng/ml). Statistical Analysis For statistical analysis, the data is presented as mean±SEM and were analyses using Students t tests. Differences were considered significant when p<0.05.\nIn vivo administration of Apocynin: Mice were orthotopically injected with 5×10^6 luciferase labelled 4T1 cells. […] Formation of lung metastases was monitored using the IVIS-200 optical in vivo imaging system. […]"}, "4T1 cells": {"test_system": "4T1 cells", "experiment": "In vivo stimulation of neutrophils with chemokines, purified neutrophils co-cultured with 4T1 cells", "format": "cell-based, mouse", "conditions": "healthy mice treated in vivo with G-CSF alone or G-CSF plus chemokine", "experimental": "A. To test which chemokines may participate in the stimulation of neutrophils, neutrophils purified from healthy mice were co-culture with luciferase labeled 4T1 cells in the presence (20 ng/ml of chemokine) or absence of certain chemokines for an overnight incubation. […] B. To test which chemokines are sufficient for in vivo stimulation of neutrophils healthy mice were treated with G-CSF (to boost neutrophil numbers) and either CCL2, CCL5 or CXCL1. Control mice were treated with G-CSF alone. Neutrophils were purified from these mice and co-cultured with Luciferase-labeled 4T1 cells. […] Conclusion—CCL2 and to a lesser degree CCL5 can stimulate tumor cell killing both in vitro and in vivo."}}, "note": "“Also recorded” adds a separate entry of the source.", "data": [{"molecule": "rhG-CSF: recombinant methionyl human granulocyte colony-stimulating factor (Neupogen, Amgen) (protein, chains of the INN, looked up, N-terminal methionine) MTPLGPASSLPQSFLLKCLEQVRKIQGDGAALQEKLCATYKLCHPEELVLLGHSLGIPWAPLSSCPSQALQLAGCLSQLHSGLFLYQGLLQALEGISPELGPTLDTLQLDVADFATTIWQQMEELGMAPALQPTQGAMPAFASAFQRRAGGVLVASHLQSFLEVSYRVLRHLAQP", "values": [{"measurement": "circulating neutrophils after rhG-CSF administration", "setting": "neutrophils; 250 μg/kg/day s.c.", "result": "significant increase in circulating and lung-associated neutrophils; also recorded: significant increase in circulating and lung-associated neutrophil numbers"}, {"measurement": "increase of circulating neutrophil numbers", "setting": "neutrophils; 250 ug/kg/day s.c. for 4 consecutive days", "result": "2-4 fold"}, {"measurement": "lung-associated neutrophils (Ly-6G or myeloperoxidase immunohistochemistry)", "setting": "neutrophils; rhG-CSF administration", "result": "increase in lung-associated neutrophils"}, {"measurement": "viability of 4T1 cells co-cultured with neutrophils purified from chemokine treated mice", "setting": "4T1 cells", "result": "did not induce a reduction in cell viability"}]}]}
